Assays:
[1] = test system: Cc1cc(=O)oc2cc(NC(=O)[C@H](CCCNC(=N)N)NC(=O)[C@H](C)NC(=O)[C@H](CCC(=O)OCc3ccccc3)NC(=O)OC(C)(C)C)ccc12; test: Inhibition of FXIa (Ki); format: biochemical, human; settings: other: substrate KM, enzyme FXIa; pH 7.8; 24.0 °C
Method: (§1) The ability of compounds of formula (I) to inhibit plasma kallikrein (PKK), Factor XIIa (FXIIa), Factor XIa (FXIa), Factor Xa (FXa), Factor IIa (alpha-thrombin; FIIa), plasmin, trypsin, tissue kallikrein 1 (TK1), Factor Vila (FVIIa), or FVIIa complexed with Tissue Factor, phospholipids and CaCl2) (FVIIa/TF/PL/CaCl2) was determined using the following biochemical assays in assay buffer (100 mM Tris, 150 mM NaCL, adjusted to a pH of 7.8 with HCl, and containing 0.1% (w/v) BSA and 0.05% (v/v) Tween20) in the presence of 1% (v/v) DMSO:
(§2) Human FXIa (0.5 nM or 0.016 U/mL; Enzyme Research Laboratories) was incubated at 24° C. with 0.25 mM fluorogenic substrate Boc-Glu(OBzl)-Ala-Arg-AMC.HCl (11575 from Bachem) and various concentrations of the test compound in assay buffer. Measurements were performed in a kinetic interval every 2nd minute for 16 min using a Spectramax M5 (Molecular Devices) with the following settings of the wavelength excitation of 350 nm and wavelength emission of 450 nm.
The pIC50 values were then fitted using a four-parametric fitting procedure using GraphPad Prism (version 6; GraphPad Software, Inc.). Respective Ki values were obtained by correction of the IC50 values for the respective KM value of the used substrate (see Table A for the obtained KM values of the used substrates) using the following formula: […]

[2] = test system: Cc1cc(=O)oc2cc(NC(=O)[C@H](CCCNC(=N)N)NC(=O)[C@H](Cc3ccccc3)NC(=O)[C@@H]3CCCN3)ccc12; test: Inhibition of PKK (Ki), kinetic assay; format: biochemical, human; settings: other: substrate KM, enzyme PKK; pH 7.8; 24.0 °C
Method: as §1
as §2, with “PKK (1.78” for “FXIa (0.5”, “0.025” for “0.016”, “H-Pro-Phe-Arg-AMC (11295” for “Boc-Glu(OBzl)-Ala-Arg-AMC.HCl (11575”, “nm. The number of the compound corresponds to the number of the Example in the experimental section.” for “nm.”
The pIC50 values were then fitted using a four-parametric fitting procedure using GraphPad Prism (version 6; GraphPad Software, Inc.). […]

Human PKK (Homo sapiens), sequence (chain, as listed by the source): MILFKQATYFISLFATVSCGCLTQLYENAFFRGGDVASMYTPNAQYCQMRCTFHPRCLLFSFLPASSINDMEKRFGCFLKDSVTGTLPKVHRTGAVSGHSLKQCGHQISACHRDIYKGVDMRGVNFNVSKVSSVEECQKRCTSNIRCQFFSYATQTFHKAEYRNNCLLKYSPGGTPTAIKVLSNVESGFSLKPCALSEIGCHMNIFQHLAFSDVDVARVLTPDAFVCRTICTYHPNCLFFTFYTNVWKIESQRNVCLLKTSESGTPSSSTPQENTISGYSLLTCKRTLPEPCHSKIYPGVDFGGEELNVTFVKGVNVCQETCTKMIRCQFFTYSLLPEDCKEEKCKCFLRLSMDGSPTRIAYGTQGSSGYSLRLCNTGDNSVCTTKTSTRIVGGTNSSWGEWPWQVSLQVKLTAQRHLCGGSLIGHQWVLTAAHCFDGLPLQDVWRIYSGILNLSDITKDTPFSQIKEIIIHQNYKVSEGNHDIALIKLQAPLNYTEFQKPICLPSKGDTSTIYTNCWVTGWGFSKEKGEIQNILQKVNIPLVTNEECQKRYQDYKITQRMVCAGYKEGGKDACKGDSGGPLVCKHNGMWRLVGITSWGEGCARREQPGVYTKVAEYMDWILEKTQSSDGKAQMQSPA

Substance	Km [1] [µM]	Km [2] [µM]
Human FXIa (Homo sapiens)	290	
Human PKK (Homo sapiens)		160

Reference: patent US12091399B2, “Phenyltetrazole derivatives as plasma kallikrein inhibitors” (Boehringer Ingelheim International GmbH, priority 2018, dated 2024)
